Assay results from the supplement of paper PMC6757056.
± gives the standard deviation of the averaged measurements.

B1: library; a variant is named by its letters at N, in order (parent)
chain: GCUGUCACCGGUGUAUUACCCUAGUGGUCGACCGGUCUGAUGAGUCUNNNNNNAGACGAAACAGC

Columns and labels:
hypoxanthine [1] = variants of: B1; assay: normalized RNA/DNA level with ligand (relative to sTRSVctl = 100) (log10 (% of sTRSVctl)); ligand: hypoxanthine (xanthine aptamer); higher = less ribozyme self-cleavage, higher mRNA level; conditions: ligand concentration (+) RNA-Seq: 5 mM, HEK293T, reporter: mCherry (pCS4076), ligand present: yes
Procedure, shortened: (§1)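 Only sequences with at least 100 DNA reads were analyzed, from HEK293T cells transfected with 4 µg per 6-well well of ribozyme switch library plasmids 72 h before RNA extraction with EDTA. Any ligand was added 1 h before transfection. RNA level was defined as RNA over DNA reads, normalized to a spiked-in non-cleaving sequence or to the top sequences, then scaled and log-transformed. The top set was 25 sequences, and the scaling was ×100 followed by log10.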

hypoxanthine [2] = variants of: B1; assay: normalized RNA/DNA level without ligand (relative to sTRSVctl = 100) (log10 (% of sTRSVctl)); ligand: hypoxanthine (xanthine aptamer); higher = less ribozyme self-cleavage, higher mRNA level; conditions: HEK293T, reporter: mCherry (pCS4076), ligand present: no
Procedure, shortened: as §1

Variant | normalized RNA/DNA level with ligand (log10) (hypoxanthine [1]) | normalized RNA/DNA level without ligand (log10) (hypoxanthine [2])
GCACAC | 1.9 ± 0.042 | 1.63 ± 0.057
ACACGC | 1.94 ± 0.033 | 1.71 ± 0.03
UAUCCA | 1.918 ± 0.0099 | 1.904 ± 0.011
UAUCCC | 1.95 ± 0.045 | 1.9 ± 0.023
UAUCCU | 1.958 ± 0.0052 | 1.9 ± 0.03
ACAGGC | 1.89 ± 0.1 | 1.72 ± 0.038
ACAAUU | 1.939 ± 0.019 | 1.736 ± 0.0095
ACAAUC | 1.9924 ± 0.0011 | 1.93 ± 0.025
CCAUAA | 1.914 ± 0.01 | 1.8 ± 0.031
UAUCAG | 1.87 ± 0.019 | 1.7 ± 0.036
UAUCAU | 1.922 ± 0.017 | 1.79 ± 0.045
GCAAUU | 1.952 ± 0.011 | 1.858 ± 0.0079
CAUGCC | 1.92 ± 0.1 | 1.84 ± 0.028
CAUGCA | 1.979 ± 0.013 | 1.688 ± 0.016
GCAGCG | 1.97 ± 0.028 | 1.62 ± 0.042
GCAGCU | 2.014 ± 0.019 | 1.95 ± 0.038
UCAGCC | 2.04 ± 0.02 | 1.997 ± 0.0026
UCAGCA | 1.99 ± 0.021 | 1.88 ± 0.03
UCAGCU | 1.99 ± 0.03 | 1.948 ± 0.014
UCACUA | 1.92 ± 0.051 | 1.83 ± 0.088

Variant | normalized RNA/DNA level with ligand (log10) (hypoxanthine [1]) | normalized RNA/DNA level without ligand (log10) (hypoxanthine [2])
UCACUC | 1.99 ± 0.02 | 2.03 ± 0.026
UCACUU | 1.93 ± 0.043 | 1.88 ± 0.025
GCAUAC | 1.904 ± 0.014 | 1.62 ± 0.049
AAUCUC | 2 ± 0.062 | 2.023 ± 0.02
AAUCUU | 1.94 ± 0.029 | 1.914 ± 0.012
UCAAUG | 1.85 ± 0.035 | 1.702 ± 0.0043
UCAAUU | 1.96 ± 0.0097 | 1.89 ± 0.023
UCAAUA | 1.91 ± 0.049 | 1.76 ± 0.021
GAUCAG | 1.92 ± 0.05 | 1.72 ± 0.016
UAUAUU | 1.907 ± 0.0056 | 1.847 ± 0.0083
CAUCCC | 1.935 ± 0.0098 | 1.91 ± 0.033
CAUCCG | 1.95 ± 0.026 | 1.91 ± 0.029
CAUCCA | 1.97 ± 0.056 | 1.94 ± 0.055
CAUCCU | 1.94 ± 0.066 | 1.94 ± 0.023
GAUUCA | 1.961 ± 0.017 | 1.86 ± 0.041
GAUUCC | 1.976 ± 0.0082 | 1.92 ± 0.034
GAUUCU | 1.97 ± 0.065 | 1.92 ± 0.042
CAUCAU | 1.921 ± 0.011 | 1.88 ± 0.043
CAUCAC | 1.96 ± 0.06 | 1.92 ± 0.062
CAUCAA | 1.938 ± 0.011 | 1.81 ± 0.042

Variant | normalized RNA/DNA level with ligand (log10) (hypoxanthine [1]) | normalized RNA/DNA level without ligand (log10) (hypoxanthine [2])
AAUAUU | 1.93 ± 0.088 | 1.88 ± 0.031
CAUCGU | 2 ± 0.038 | 1.94 ± 0.025
CAUCGC | 1.97 ± 0.064 | 1.9 ± 0.021
CAUCGG | 1.92 ± 0.055 | 1.63 ± 0.036
UCACGC | 1.94 ± 0.033 | 1.78 ± 0.13
UCACGA | 1.923 ± 0.011 | 1.8 ± 0.043
UCACGG | 1.91 ± 0.043 | 1.79 ± 0.051
UCACGU | 1.92 ± 0.042 | 1.78 ± 0.062
AAUUGC | 1.905 ± 0.013 | 1.82 ± 0.046
AAUUGU | 1.93 ± 0.004 | 1.705 ± 0.013
UCAGAC | 1.964 ± 0.0055 | 1.92 ± 0.042
UCAGAU | 1.96 ± 0.037 | 1.76 ± 0.066
UCAGAA | 1.9 ± 0.044 | 1.665 ± 0.0042
UCAGAG | 1.9 ± 0.046 | 1.58 ± 0.066
AAUGAA | 1.872 ± 0.0038 | 1.71 ± 0.018
ACACUA | 1.94 ± 0.053 | 1.801 ± 0.0044
ACACUC | 1.96 ± 0.023 | 1.97 ± 0.063
ACACUU | 1.95 ± 0.059 | 1.83 ± 0.059
